Reference: US20230365700A1 (BIOSION, published 2023)
Where two headings read alike, the source gives them in different places.

Tests used:
[1] = target: T1, full length human CD40 (uniprot #P25942-1, SEQ ID NO: 30) on 293T cells (human, UniProt P25942 21-277); experiment: flow cytometry (FACS) on 293T-CD40 cells expressing full length human CD40; MFI
Procedure: (§1) 2×10⁵ cells were incubated in each well of 96 well-plates in 100 μl anti-CD40 antibodies of the disclosure or controls of various concentrations (starting at 80 nM with a 4-fold serial dilution) in FACS buffer for 40 minutes on ice. […] Following an incubation of 40 minutes at 4° C. in dark, cells were washed three times and resuspended in FACS buffer. Fluorescence was measured using a Becton Dickinson FACS Canto II-HTS equipment and plotted against antibody concentration. Data was analyzed using Graphpad Prism software and EC₅₀ values were reported.

[2] = target: T2, human CD40-Fc protein (amino acid residue 21-193 of SEQ ID NO: 30 linked to N-terminus of amino acid residue … (human, biotin-labeled in the capture ELISA and the benchmark blocking ELISA; unlabeled when coated in the ligand blocking ELISA); experiment: competitive ELISA: antibody pre-incubated with biotin-labeled human CD40-Fc (0.23 nM), mixture added to coated BM2; competitor: BM2; OD(450-630); only partial: OD falls from about 1.13 to a plateau of about 0.92
T2 construct: also called biotin-labeled human CD40-Fc; human CD40-Fc-biotin
Procedure: (§2) The abilities of the anti-CD40 antibodies of the disclosure to block Benchmark-human CD40 binding was measured in a competitive ELISA assay. Briefly, the BM2 antibody was coated on 96-well micro plates at 1 μg/mL in PBS, 100 μl per well, and incubated overnight at 4° C. The next day, plates were washed once with wash buffer, and blocked with blocking buffer (5% w/v non-fatty milk in PBST) for 2 hours at 37° C. While blocking, the anti-CD40 antibodies of the disclosure or controls were diluted with biotin labeled human CD40-Fc protein (amino acid residue 21-193 of SEQ ID NO: 30 linked to N-terminus of amino acid residue 99-330 of SEQ ID NO.:28, 0.23 nM in 2.5% v/v non-fatty milk in PBST), starting at 66.7 nM with a 5-fold serial dilution, and incubated at room temperature for 40 minutes. After plate washing 4 times, the antibody/human CD40-Fc-biotin mixtures were added to BM2 coated plates, 100 μl/well. After incubation at 37° C. for 40 minutes, plates were washed 4 times again using wash buffer. […] Finally, TMB was added and the reaction was stopped using 1M H2504, and the absorbance was read on a microplate reader using dual wavelength mode with 450 nm for TMB and 630 nm as the reference wavelength, then the OD (450-630) values were plotted against antibody concentration. Data was analyzed using Graphpad Prism software and IC₅₀ values were reported.

[3] = target: T2, human CD40-Fc protein (amino acid …); experiment: capture ELISA: antibody captured on goat anti-mouse IgG F(ab')2-specific coat, detected with biotin-labeled human CD40-Fc (1.15 nM) and streptavidin-HRP; OD(450-630); the curve reaches only OD about 0.9 at the highest concentration, no plateau
Procedure: (§3) Plates were washed once with wash buffer (PBS+0.05% v/v Tween-20, PBST) and then blocked with 200 μl/well blocking buffer (5% w/v non-fatty milk in PBST) for 2 hours at 37° C. Plates were washed 4 times and incubated with 100 μl/well serially diluted anti-CD40 antibodies of the disclosure, BM1, BM2 and negative control hIgG (human immunoglobulin (pH4) for intravenous injection, Hualan Biological Engineering Inc.) (5-fold serial dilution in 2.5% w/v non-fatty milk in PBST, starting at 66.7 nM) for 40 minutes at 37° C., and then washed 4 times again. […] After a final wash, plates were incubated with 100 μl/well ELISA substrate TMB (Innoreagents, Cat #TMB-S-002) at room temperature. The reaction was stopped in 3-10 minutes with 50 μl/well 1M H₂SO₄, and the absorbance of each well was read on a microplate reader using dual wavelength mode with 450 nm for TMB and 630 nm as the reference wavelength, then the OD (450-630) values were plotted against antibody concentration. Data was analyzed using Graphpad Prism software and EC₅₀ values were reported.

[4] = target: T1, full length human CD40 (uniprot …); experiment: flow cytometry (FACS) on 293T-CD40 cells expressing full length human CD40; MFI; remark: listed apart in the source
Procedure: as §1

[5] = target: T2, human CD40-Fc protein (amino acid …); experiment: competitive ELISA: antibody added to coated human CD40-Fc, then biotin-labeled human CD40L-his (95 ng/mL); blocked ligand: CD40L-his; OD(450-630)
Procedure: (§4) The abilities of anti-CD40 antibodies to block CD40-CD40L binding were measured in a competitive ELISA assay. Briefly, 100 μl human CD40-Fc protein (amino acid residue 21-193 of SEQ ID NO: 30 linked to N-terminus of amino acid residue 99-330 of SEQ ID NO.:28) was coated on 96-well micro plates at 2 μg/mL in coating buffer (carbonate/bicarbonate buffer) and incubated overnight at 4° C. The next day, plates were washed once with wash buffer (PBS+0.05% v/v Tween-20, PBST), and blocked with 5% w/v non-fatty milk in PBST for 2 hours at 37° C. Plates were then washed 4 times using wash buffer.
Serially diluted anti-CD40 antibodies of the disclosure or controls (starting at 200 nM with a five-fold serial dilution) in PBST with 2.5% w/v non-fatty milk were added to the CD40-Fc bound plates, 100 μl per well, and incubated at 37° C. for 40 minutes. […] Finally, TMB was added and the reaction was stopped using 1M H2504, and the absorbance of each well was read on a microplate reader using dual wavelength mode with 450 nm for TMB and 630 nm as the reference wavelength, then the OD (450-630) values were plotted against antibody concentration. Data was analyzed using Graphpad Prism software and IC₅₀ values were reported.

[6] = target: T2, human CD40-Fc protein (amino acid …); experiment: as above; remark: listed apart in the source
Procedure: as §4
Serially diluted anti-CD40 antibodies of the disclosure or controls (starting at 200 nM with a five-fold serial dilution) in PBST with 2.5% w/v non-fatty milk were added to the CD40-Fc bound plates, 100 μl per well, and incubated at 37° C. for 40 minutes. Plates were washed 4 times again using wash buffer, and then added and incubated for 40 minutes at 37° C. with 100 μl/well 95 ng/mL biotin-labeled human CD40L-his protein (Sino biological Inc., Cat #10239-H08E). Plates were washed again using wash buffer. Thereafter, the plates were added with 100 μl/well of streptavidin conjugated HRP (1:10000 dilution in PBST buffer, Jackson Immunoresearch, Cat #016-030-084) and incubated for 40 minutes at 37° C. Plates were washed again using wash buffer. Finally, TMB was added and the reaction was stopped using 1M H2504, and the absorbance of each well was read on a microplate reader using dual wavelength mode with 450 nm for TMB and 630 nm as the reference wavelength, then the OD (450-630) values were plotted against antibody concentration. Data was analyzed using Graphpad Prism software and IC₅₀ values were reported.

[7] = target: T2, human CD40-Fc protein (amino acid …); experiment: competitive ELISA: antibody pre-incubated with biotin-labeled human CD40-Fc (0.23 nM), mixture added to coated BM2; competitor: BM2 (self-competition); OD(450-630)
Procedure: as §2

[8] = target: T2, human CD40-Fc protein (amino acid …); experiment: as above; remark: listed apart in the source
Procedure: as §2

[9] = target: T2, human CD40-Fc protein (amino acid …); experiment: capture ELISA: antibody captured on goat anti-mouse IgG F(ab')2-specific coat, detected with biotin-labeled human CD40-Fc (1.15 nM) and streptavidin-HRP; OD(450-630)
Procedure: as §3

[10] = target: T2, human CD40-Fc protein (amino acid …); experiment: as above; remark: listed apart in the source
Procedure: as §3

[11] = target: T2, human CD40-Fc protein (amino acid …); experiment: competitive ELISA: antibody pre-incubated with biotin-labeled human CD40-Fc (0.23 nM), mixture added to coated BM2; competitor: BM2; OD(450-630)
Procedure: as §2

[12] = target: T2, human CD40-Fc protein (amino acid …); experiment: competitive ELISA: antibody pre-incubated with biotin-labeled human CD40-Fc (0.23 nM), mixture added to coated BM2; competitor: BM2; OD(450-630); only partial: OD falls from about 1.13 to a plateau of about 0.77
Procedure: as §2

Binder | EC50 [1] [nM] | IC50 [2] [nM] | EC50 [3] [nM] | EC50 [4] [nM] | IC50 [5] [nM] | IC50 [6] [nM] | IC50 [7] [nM] | IC50 [8] [nM] | EC50 [9] [nM] | EC50 [10] [nM] | IC50 [11] [nM] | IC50 [12] [nM]
mouse anti-CD40 monoclonal antibody 1D1 (antibody, V domains shown, Hybridoma-derived mouse mAb; also called Clone 1D1) VH: EVQLQQSGPELVKPGASVKMSCKASGYTFTDYVMHWVKQKPGQGLECIGYINPYNDGTTYNEKFKGKATLTSDKSSNAAYLELSSLTSEDSAVYYCARGFLRESWFGYWGQGTLVTVSA VL: DVLLTQTPLSLPVSLGDQASISCRSSQNIVHSNGNTYLDWYLQKPGQSPKLLIYKVSNRFSGVPDRFSGSGSGTDFTLKISRVEAEDLGVYYCFQGSHVPPTFGGGTKLELK | 1.79 | 4.84 | 10.9 |  |  |  |  |  |  |  |  | 
BM2 (Selicrelumab) (antibody, human IgG2, kappa, V domains shown, Benchmark antibody, made in house; also called CD40-BM2; benchmark) VH: not shown VL: DIQMTQSPSSVSASVGDRVTITCRASQGIYSWLAWYQQKPGKAPNLLIYTASTLQSGVPSRFSGSGSGTDFTLTISSLQPEDFATYYCQQANIFPLTFGGGTKVEIKR | 2.01 |  |  | 3.26 | 9 | 9.7 | 0.804 | 0.678 | 0.637 | 0.28 |  | 
BM1 (Dacetuzumab) (antibody, human IgG1, kappa, V domains shown, Benchmark antibody, made in house; also called CD40-BM1; benchmark) VH: EVQLVESGGGLVQPGGSLRLSCAASGYSFTGYYIHWVRQAPGKGLEWVARVIPNAGGTSYNQKFKGRFTLSVDNSKNTAYLQMNSLRAEDTAVYYCAREGIYWWGQGTLVTVSS VL: DIQMTQSPSSLSASVGDRVTITCRSSQSLVHSNGNTFLHWYQQKPGKAPKLLIYTVSNRFSGVPSRFSGSGSGTDFTLTISSLQPEDFATYFCSQTTHVPWTFGQGTKVEIKR | 0.975 |  |  | 2.46 | 6.95 | 7.91 |  |  | 0.236 | 0.248 | 0.234 | 
mouse anti-CD40 monoclonal antibody 1A3 (antibody, V domains shown, Hybridoma-derived mouse mAb; also called Clone 1A3) VH: EVQLQQSGPELVKTGASVKISCKASGYSFIGYYLHWVKQSLGKGLEWIGYISCHDGTIIYNQKFKGKATFTLDTSSSTAYMQFSSLTSEDSAVYFCARFLNYYGSNYAMDYWGQGTSVTVSS VL: DIVMTQSHKFMSTSVGDRVSITCKASQDVGPAVAWYQQKPGQSPKLLIYWASTRHTGVPDRFTGSGYGTDFTLTINNVQSEDLADYFCQQYFTYPLTFGGGTKLEIK | 1.71 |  |  |  |  |  |  |  | 0.0906 |  |  | 0.18
mouse anti-CD40 monoclonal antibody C1H1 (antibody, V domains shown, Hybridoma-derived mouse mAb purified on Protein A; also called mouse C1H1; Clone C1H1) VH: EVKLVESGGGLVKPGASLKLSCAASGFTFSNYGISWVRQTSDKRLEWVASISSGGDNTYYPDNVKGRFTISRENAKNTLYLQMSSLKSEDTALYYCARAGEKAMDYWGQGTSVTVSS VL: DIVLTQSPVTLSVTPGDSVSLSCRASQTINNNLHWYQQKSHESPRLLIKYASQSISGIPSRFSGSGSGTDFTLSINSVETEDFGIYFCQQFSSWPLTFGAGTKLELK |  |  |  | 1.95 |  | 7.83 |  |  |  | 0.0774 |  | 
